Source: US20220162308A1 (Novartis, published 2022)
Read-outs that look alike come from different tables or passages of the source.

Assays:
Human CD48 on cells [1] = biological target: T1, Human CD48 on cells (human, UniProt P09326 27-220); assay: cell-based or functional assay
T1 sequence: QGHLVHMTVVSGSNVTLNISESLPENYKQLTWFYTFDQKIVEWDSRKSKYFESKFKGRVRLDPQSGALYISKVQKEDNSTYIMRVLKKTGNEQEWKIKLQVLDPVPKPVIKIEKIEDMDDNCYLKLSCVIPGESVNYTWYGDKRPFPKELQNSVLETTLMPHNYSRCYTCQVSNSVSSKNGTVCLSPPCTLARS

Human CD48 on cells [2] = biological target: T1, Human CD48 on cells; assay: cell-based or functional assay; remark: listed apart in the source
[3] = biological target: T2, Human CD48 (soluble recombinant, SPR analyte) (human, UniProt P09326 27-220); assay: SPR Biacore T200, antibody captured on protein A chip, soluble CD48 as analyte, 25 C, 1:1 model
T2 construct: also called Human CD48 antigen; not shown: C-terminal tag (hFc1P, APP6-Avi or His) is not specified for the analyte
T2 sequence: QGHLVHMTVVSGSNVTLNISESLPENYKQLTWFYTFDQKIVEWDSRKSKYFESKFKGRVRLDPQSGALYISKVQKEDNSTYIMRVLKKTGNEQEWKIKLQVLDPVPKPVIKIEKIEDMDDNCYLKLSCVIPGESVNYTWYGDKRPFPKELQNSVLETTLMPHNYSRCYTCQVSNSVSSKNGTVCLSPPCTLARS
Experimental: (§1) HBS-EP+pH 7.4 containing 10 mM HEPES, 150 mM NaCl, 3 mM EDTA and 0.05% (v/v) surfactant P20 (Teknova, ordering #H8022) was used as running buffer as well as for sample dilution.
(§2) The anti-CD48 antibodies were diluted at 5 μg/ml and injected on flow cells 2 and 4 for 20 sec at 10 μl/min. Capture level for all antibodies was 370-440 RU. Flow cells 1 and 3 were left blank (no antibody captured) and used as a reference surface. Human and cynomolgus CD48 served as analytes in solution. […] After each cycle of antibody capture and analyte injection, the chip surface was regenerated with 10 mM Glycine-HCl pH 1.5 (Cytiva, ordering #BR100354) for 2×30 s at a flow rate of 50 μl/min. Three runs with duplicate measurements and buffer blank injections were performed. Measurements were executed at 25° C. and data collected at a rate of 10 Hz.
(§3) Data were evaluated using the Biacore 8K evaluation software. The raw data were double referenced, i.e. the response of the measuring flow cells was corrected for the response of the reference flow cells (no antibody captured), and in a second step the response of a blank injection (buffer) was subtracted. Finally, the sensorgrams were fitted by applying a 1:1 interaction model with a constant fit of RI (0) and a global fit for Rₘₐₓ. Kinetic rate constants (kₐ, kd) and equilibrium dissociation constants (KD) were calculated. Data were processed separately for each run. The generated values were used to calculate average values and standard deviations of the respective equilibrium dissociation constants and the kinetic rate constants.

[4] = biological target: T3, Cynomolgus CD48 (soluble recombinant, SPR analyte) (cynomolgus monkey (Macaca fascicularis), UniProt P09326 30-225 (human entry)); assay: as above
T3 construct: also called cyno CD48; Cyno CD48; not shown: C-terminal tag (hFc1P, APP6-Avi or His) is not specified for the analyte
T3 chain: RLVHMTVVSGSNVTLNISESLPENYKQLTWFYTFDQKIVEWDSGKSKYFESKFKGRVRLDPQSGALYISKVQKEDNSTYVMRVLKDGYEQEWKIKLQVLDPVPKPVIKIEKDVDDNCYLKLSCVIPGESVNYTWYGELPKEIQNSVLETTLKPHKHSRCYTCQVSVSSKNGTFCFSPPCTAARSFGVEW
Experimental: as §1, §2, §3

[5] = biological target: T2, Human CD48 (soluble recombinant, SPR …); assay: SPR Biacore T200, antibody captured on Protein A chip, soluble CD48 as analyte, 1:1 model, Exp 2
Experimental: (§4) Binding to human and cyno CD48 for the WT IgG and DAPA (D265A and P329A mutation) variant was assessed for affinity determinations using Biacore. Kinetic rate constants was performed via SPR using the Biacore T200 instrument (Cytiva, formerly GE Healthcare Lifesciences) as described below.
(§5) The Protein A capture method was utilized in order to determine kinetics for the antibodies. […] The human CD48 and cyno CD48 concentration started at 50 nM and 200 nM respectively, and were serially diluted at one part to one part for nine concentrations. Regeneration was performed at the end of each concentration washing with the Glycine pH1.5 (Cytiva, cat #BR100354).
(§6) Double reference subtraction was completed to generate the final data. The raw data was fitted to a 1:1 binding model, with parameter(s) Rmax set to local.

[6] = biological target: T3, Cynomolgus CD48 (soluble recombinant, …); assay: as above
Experimental: as §4, §5, §6

[7] = biological target: T2, Human CD48 (soluble recombinant, SPR …); assay: SPR Biacore T200, antibody captured on Protein A chip, soluble CD48 as analyte, 1:1 model, Exp 1
Experimental: as §4, §5, §6

[8] = biological target: T3, Cynomolgus CD48 (soluble recombinant, …); assay: as above
Experimental: as §4, §5, §6

B1: NY920-DAPA-VC-MMAE (antibody, human IgG1, kappa)
heavy: EVQLLESGGGLVQPGGSLRLSCAASGFTFSSFAMSWVRQAPGKGLEWVSAISGFGGSTYYADSVKGRFTISRDNSKNTLYLQMNSLRAEDTAVYYCARQFWEDQPFYFDYWGQGTLVTVSSASTKGPSVFPLAPSSKSTSGGTAALGCLVKDYFPCPVTVSWNSGALTSGVHTFPAVLQSSGLYSLSSVVTVPSSSLGTQTYICNVNHKPSNTKVDKRVEPKSCDKTHTCPPCPAPELLGGPSVFLFPPKPKDTLMISRTPEVTCVVVAVSHEDPEVKFNWYVDGVEVHNAKTKPREEQYNSTYRVVSVLTVLHQDWLNGKEYKCKVSNKALAAPIEKTISKAKGQPREPQVYTLPPSREEMTKNQVSLTCLVKGFYPCDIAVEWESNGQPENNYKTTPPVLDSDGSFFLYSKLTVDKSRWQQGNVFSCSVMHEALHNHYTQKSLSLSPGK
light: not shown
modifications: VC-MMAE (MC-valcit-PAB-MMAE) on the engineered cysteines (E152C, S375C, EU numbering)
Amax (Span), KMS-20 (Human CD48 on cells [1]): 94 | Amax (Span), KMS-21-BM (Human CD48 on cells [1]): 92.9 | Amax (Span), KMS-27 (Human CD48 on cells [1]): 83.9 | Amax (Span), NCI-H929 (Human CD48 on cells [1]): 89.7 | IC50 (nM), cell proliferation/survival (CellTiter-Glo), KMS-20 (Human CD48 on cells [1]): 0.077 nM | IC50 (nM), cell proliferation/survival (CellTiter-Glo), KMS-21-BM (Human CD48 on cells [1]): 0.026 nM | IC50 (nM), cell proliferation/survival (CellTiter-Glo), KMS-27 (Human CD48 on cells [1]): 0.028 nM | IC50 (nM), cell proliferation/survival (CellTiter-Glo), NCI-H929 (Human CD48 on cells [1]): 0.027 nM

B2: CD48A-CysMab-VC-MMAE (antibody, human IgG1, kappa)
heavy: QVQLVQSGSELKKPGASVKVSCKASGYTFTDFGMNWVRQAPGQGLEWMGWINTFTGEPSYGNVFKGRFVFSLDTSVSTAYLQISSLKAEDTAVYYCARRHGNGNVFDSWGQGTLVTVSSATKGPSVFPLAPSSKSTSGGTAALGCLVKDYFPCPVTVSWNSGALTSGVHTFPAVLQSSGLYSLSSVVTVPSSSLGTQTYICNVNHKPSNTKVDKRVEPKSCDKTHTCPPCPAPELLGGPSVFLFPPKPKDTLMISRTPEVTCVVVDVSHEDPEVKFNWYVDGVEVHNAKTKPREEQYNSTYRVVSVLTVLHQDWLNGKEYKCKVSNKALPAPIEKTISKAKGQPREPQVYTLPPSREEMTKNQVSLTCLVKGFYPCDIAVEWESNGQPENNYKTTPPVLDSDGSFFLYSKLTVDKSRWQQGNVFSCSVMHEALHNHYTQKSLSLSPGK
light: EIVLTQSPDFQSVTPKEKVTITCRASQSIGSNIHWYQQKPDQSPKLLIKYTSESISGVPSRFSGSGSGTDFTLTINSLEAEDAATYYCQQSNSWPLTFGGGTKVEIKRTVAAPSVFIFPPSDEQLKSGTASVVCLLNNFYPREAKVQWKVDNALQSGNSQESVTEQDSKDSTYSLSSTLTLSKADYEKHKVYACEVTHQGLSSPVTKSFNRGEC
modifications: MC-valcit-PAB-MMAE on the engineered cysteines (CysMab: E152C, S375C, EU numbering); DAR 3.9
IC50 (nM), cell proliferation/survival (CellTiter-Glo), KMS-21-BM (Human CD48 on cells [2]): 0.062 nM | IC50 (nM), cell proliferation/survival (CellTiter-Glo), KMS-27 (Human CD48 on cells [2]): 6.1 nM | IC50 (nM), cell proliferation/survival (CellTiter-Glo), NCI-H929 (Human CD48 on cells [2]): 2.1 nM

B3: NY938 (antibody, human IgG1, kappa)
heavy: not shown
light: DIQMTQSPSSLSASVGDRVTITCKASQDVGTAVAWYQQKPGKVPKLLIYWASTRHTGVPSRFSGSGSGTDFTLTISSLQPEDVATYYCQQYSTYPITFGQGTKLEIKRTVAAPSVFIFPPSDEQLKSGTASVVCLLNNFYPREAKVQWKVDNALQSGNSQESVTEQDSKDSTYSLSSTLTLSKADYEKHKVYACEVTHQGLSSPVTKSFNRGEC
notes: also called anti-CD48-NY938-hIgG1_kappa (a-fuc); NY938-IgG
IC50 (nM), cell proliferation/survival (CellTiter-Glo), KMS-21-BM, with anti-human Fc-VC-MMAE (Human CD48 on cells [2]): 0.008 nM | IC50 (nM), cell proliferation/survival (CellTiter-Glo), KMS-27, with anti-human Fc-VC-MMAE (Human CD48 on cells [2]): < 0.001 nM | IC50 (nM), cell proliferation/survival (CellTiter-Glo), NCI-H929, with anti-human Fc-VC-MMAE (Human CD48 on cells [2]): 0.004 nM | Span (Amax), KMS-21-BM, with anti-human Fc-VC-MMAE (Human CD48 on cells [2]): 98.9 | Span (Amax), KMS-27, with anti-human Fc-VC-MMAE (Human CD48 on cells [2]): > 100 | Span (Amax), NCI-H929, with anti-human Fc-VC-MMAE (Human CD48 on cells [2]): 99.7 | Kd [3]: 0.5 nM | koff [3]: 0.00013 s⁻¹ | kon [3]: 250000 M⁻¹ s⁻¹ | Kd [4]: 1.5 nM | koff [4]: 0.00037 s⁻¹ | kon [4]: 250000 M⁻¹ s⁻¹

B4: NY938-CysMab-VC-MMAE (antibody, human IgG1, kappa)
heavy: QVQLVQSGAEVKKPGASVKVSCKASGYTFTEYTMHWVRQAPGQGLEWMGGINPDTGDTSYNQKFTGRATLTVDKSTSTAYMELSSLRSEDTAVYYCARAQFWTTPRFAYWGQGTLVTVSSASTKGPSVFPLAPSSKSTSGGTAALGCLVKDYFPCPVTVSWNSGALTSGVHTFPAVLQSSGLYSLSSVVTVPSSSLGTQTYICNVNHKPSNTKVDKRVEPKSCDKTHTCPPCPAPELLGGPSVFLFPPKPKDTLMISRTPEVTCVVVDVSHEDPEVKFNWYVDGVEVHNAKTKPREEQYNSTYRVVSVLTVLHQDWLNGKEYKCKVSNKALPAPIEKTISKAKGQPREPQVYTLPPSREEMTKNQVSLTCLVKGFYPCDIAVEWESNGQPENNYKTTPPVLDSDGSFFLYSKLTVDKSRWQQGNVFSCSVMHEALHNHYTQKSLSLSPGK
light: DIQMTQSPSSLSASVGDRVTITCKASQDVGTAVAWYQQKPGKVPKLLIYWASTRHTGVPSRFSGSGSGTDFTLTISSLQPEDVATYYCQQYSTYPITFGQGTKLEIKRTVAAPSVFIFPPSDEQLKSGTASVVCLLNNFYPREAKVQWKVDNALQSGNSQESVTEQDSKDSTYSLSSTLTLSKADYEKHKVYACEVTHQGLSSPVTKSFNRGEC
modifications: VC-MMAE (MC-valcit-PAB-MMAE) on the engineered cysteines (E152C, S375C, EU numbering)
Amax (Span), KMS-20 (Human CD48 on cells [1]): 99.2 | Amax (Span), KMS-21-BM (Human CD48 on cells [1]): 105 | Amax (Span), KMS-27 (Human CD48 on cells [1]): 98.6 | Amax (Span), NCI-H929 (Human CD48 on cells [1]): 101 | IC50 (nM), cell proliferation/survival (CellTiter-Glo), KMS-20 (Human CD48 on cells [1]): 0.043 nM | IC50 (nM), cell proliferation/survival (CellTiter-Glo), KMS-21-BM (Human CD48 on cells [1]): 0.021 nM | IC50 (nM), cell proliferation/survival (CellTiter-Glo), KMS-27 (Human CD48 on cells [1]): 0.017 nM | IC50 (nM), cell proliferation/survival (CellTiter-Glo), NCI-H929 (Human CD48 on cells [1]): 0.018 nM

B5: NY938-DAPA-VC-MMAE (antibody, human IgG1, kappa)
heavy: QVQLVQSGAEVKKPGASVKVSCKASGYTFTEYTMHWVRQAPGQGLEWMGGINPDTGDTSYNQKFTGRATLTVDKSTSTAYMELSSLRSEDTAVYYCARAQFWTTPRFAYWGQGTLVTVSSASTKGPSVFPLAPSSKSTSGGTAALGCLVKDYFPCPVTVSWNSGALTSGVHTFPAVLQSSGLYSLSSVVTVPSSSLGTQTYICNVNHKPSNTKVDKRVEPKSCDKTHTCPPCPAPELLGGPSVFLFPPKPKDTLMISRTPEVTCVVVAVSHEDPEVKFNWYVDGVEVHNAKTKPREEQYNSTYRVVSVLTVLHQDWLNGKEYKCKVSNKALAAPIEKTISKAKGQPREPQVYTLPPSREEMTKNQVSLTCLVKGFYPCDIAVEWESNGQPENNYKTTPPVLDSDGSFFLYSKLTVDKSRWQQGNVFSCSVMHEALHNHYTQKSLSLSPGK
light: DIQMTQSPSSLSASVGDRVTITCKASQDVGTAVAWYQQKPGKVPKLLIYWASTRHTGVPSRFSGSGSGTDFTLTISSLQPEDVATYYCQQYSTYPITFGQGTKLEIKRTVAAPSVFIFPPSDEQLKSGTASVVCLLNNFYPREAKVQWKVDNALQSGNSQESVTEQDSKDSTYSLSSTLTLSKADYEKHKVYACEVTHQGLSSPVTKSFNRGEC
modifications: VC-MMAE (MC-valcit-PAB-MMAE) on the engineered cysteines (E152C, S375C, EU numbering)
Amax (Span), KMS-20 (Human CD48 on cells [1]): 99.8 | Amax (Span), KMS-21-BM (Human CD48 on cells [1]): 105 | Amax (Span), KMS-27 (Human CD48 on cells [1]): 108 | Amax (Span), NCI-H929 (Human CD48 on cells [1]): 105 | IC50 (nM), cell proliferation/survival (CellTiter-Glo), KMS-20 (Human CD48 on cells [1]): 0.037 nM | IC50 (nM), cell proliferation/survival (CellTiter-Glo), KMS-21-BM (Human CD48 on cells [1]): 0.021 nM | IC50 (nM), cell proliferation/survival (CellTiter-Glo), KMS-27 (Human CD48 on cells [1]): 0.014 nM | IC50 (nM), cell proliferation/survival (CellTiter-Glo), NCI-H929 (Human CD48 on cells [1]): 0.016 nM

B6: NY938 DAPA (antibody, human IgG1, kappa, name in EU numbering)
heavy: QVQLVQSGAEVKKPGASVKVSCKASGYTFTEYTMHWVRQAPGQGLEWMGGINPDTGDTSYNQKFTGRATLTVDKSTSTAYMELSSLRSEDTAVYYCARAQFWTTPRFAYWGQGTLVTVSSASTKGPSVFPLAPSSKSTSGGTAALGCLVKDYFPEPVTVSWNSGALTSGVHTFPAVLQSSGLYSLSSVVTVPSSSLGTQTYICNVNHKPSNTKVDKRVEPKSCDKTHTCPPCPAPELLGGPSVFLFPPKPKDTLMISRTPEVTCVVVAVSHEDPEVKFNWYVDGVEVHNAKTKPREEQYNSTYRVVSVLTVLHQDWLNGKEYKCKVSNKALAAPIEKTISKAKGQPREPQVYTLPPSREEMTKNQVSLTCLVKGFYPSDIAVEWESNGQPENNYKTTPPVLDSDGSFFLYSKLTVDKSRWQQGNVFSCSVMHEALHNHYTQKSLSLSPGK
light: DIQMTQSPSSLSASVGDRVTITCKASQDVGTAVAWYQQKPGKVPKLLIYWASTRHTGVPSRFSGSGSGTDFTLTISSLQPEDVATYYCQQYSTYPITFGQGTKLEIKRTVAAPSVFIFPPSDEQLKSGTASVVCLLNNFYPREAKVQWKVDNALQSGNSQESVTEQDSKDSTYSLSSTLTLSKADYEKHKVYACEVTHQGLSSPVTKSFNRGEC
notes: Positions are EU numbers; also called NY938 DAPA IgG variant
Kd [5]: 0.252 nM | koff [5]: 0.000115 s⁻¹ | kon [5]: 456000 M⁻¹ s⁻¹ | Kd [6]: 0.774 nM | koff [6]: 0.000316 s⁻¹ | kon [6]: 409000 M⁻¹ s⁻¹ | Kd [7]: 0.296 nM | koff [7]: 0.000104 s⁻¹ | kon [7]: 352000 M⁻¹ s⁻¹ | Kd [8]: 1.07 nM | koff [8]: 0.000289 s⁻¹ | kon [8]: 271000 M⁻¹ s⁻¹
